± gives the uncertainty stated by the source.
Test: protein stability index of a GFP-peptide fusion (yeast GPS) (PSI 1-4); higher = more stable; sorted into four equal gates, so the index is relative within each strain
Summary of the method: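 Tiled 17-residue yeast protein peptides were fused downstream of GFP in a plasmid that also expresses Cherry, and the pooled library was carried in yeast. Mid-log cultures in leucine-free medium were sorted into four equal gates by GFP/Cherry fluorescence ratio, and plasmids from each gate were PCR-amplified and Illumina-sequenced, with reads assigned to strains by barcodes. The protein stability index for each peptide was each gate's read frequency times its gate number, summed.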

Sequence | protein stability index (doa10∆) | protein stability index (pdr5∆) | protein stability index (san1∆) | protein stability index (ubr1∆)
PKKHLSETADETLENNI [RPN11] | 3.15 ± 0.1 | 3.13 ± 0.098 | 3.17 ± 0.077 | 2.84 ± 0.088
FTPEEEAAIRRENEWAE [SKP1] | 3.01 ± 0.11 | 3.25 ± 0.096 | 3.34 ± 0.063 | 3.3 ± 0.11
KSSDSNDSNPSFSFSIP [YLR335W/NUP2] | 2.62 ± 0.046 | 2.53 ± 0.048 | 2.31 ± 0.058 | 2.81 ± 0.034
IPNRRFTLWWSPTINRA [PRP8] | 2.65 ± 0.069 | 2.28 ± 0.065 | 1.65 ± 0.052 | 2.29 ± 0.047
DIYSHEYKVITSLQGTY [YMR129W/POM152] | 1.89 ± 0.064 | 2.43 ± 0.07 | 2.65 ± 0.075 | 2.49 ± 0.048
VKWYHFDHNDKKLSINS [PRE7] | 2.51 ± 0.086 | 2.38 ± 0.063 | 2.15 ± 0.082 | 2.48 ± 0.1
YHNKHMMCDFGTGNNNK [DIB1] | 2.7 ± 0.053 | 2.86 ± 0.055 | 2.73 ± 0.049 | 2.98 ± 0.041
KEEVCQGMEGTVDLALF [YMR129W/POM152] | 3.45 ± 0.21 | 3.44 ± 0.27 | 3.26 ± 0.2 | –
SNIELAFSSVEHIIRDV [COB] | 3 ± 0.087 | 2.78 ± 0.1 | 2.79 ± 0.079 | 2.73 ± 0.11
CAFLLTKIKDAEEDSLL [YJL039C/NUP192] | 3.22 ± 0.11 | 3.4 ± 0.071 | 3.08 ± 0.11 | 3.35 ± 0.1
KPQLKFKSPIDNSESHP [RRP6] | 2.77 ± 0.083 | 3.06 ± 0.06 | 2.89 ± 0.084 | 3.12 ± 0.034
DVLKDGENNINFQKASA [BRN1] | 3.31 ± 0.16 | 3.4 ± 0.12 | 3.51 ± 0.077 | 3.31 ± 0.11
QIMQNPTHYKIPAWFLN [RPS18A] | 2.02 ± 0.072 | 1.99 ± 0.071 | 1.66 ± 0.084 | 1.6 ± 0.048
KTLIGLQGIVIWDSQKF [POP4] | 1.7 ± 0.061 | 1.91 ± 0.051 | 2.17 ± 0.071 | 2.38 ± 0.044
IVIDVDYNKKQDRIQDV [MED1] | 3.16 ± 0.15 | 3.13 ± 0.091 | 2.99 ± 0.094 | 3.09 ± 0.077
TVIEGVKEESQPDENTK [SWI3] | 3.13 ± 0.17 | 3.28 ± 0.15 | 2.74 ± 0.12 | 3 ± 0.089
PDDDKIVPLTEGDIQVL [RPT1] | 3.21 ± 0.097 | 3.22 ± 0.1 | 2.7 ± 0.07 | 3.01 ± 0.052
PKVKEIKTVVLVPQLGH [PRP8] | 1.93 ± 0.088 | 2.25 ± 0.08 | 1.94 ± 0.14 | 2.31 ± 0.048
LQKAVRGHVLQFEWHQN [SNF2] | 1.27 ± 0.043 | 1.34 ± 0.063 | 1.37 ± 0.16 | 1.35 ± 0.058
RLIDLSGCENITDKTIE [GRR1] | 3.05 ± 0.068 | 3.21 ± 0.093 | 2.85 ± 0.079 | 2.88 ± 0.093

Sequence | protein stability index (doa10∆) | protein stability index (pdr5∆) | protein stability index (san1∆) | protein stability index (ubr1∆)
SLQYINIRGNTIRQIIL [SMD1] | 3.15 ± 0.097 | 3.26 ± 0.085 | 2.73 ± 0.1 | 2.94 ± 0.065
MTLNRKCVVIHNGSHRT [ARP7] | 2.59 ± 0.051 | 2.74 ± 0.062 | 2.54 ± 0.059 | 2.66 ± 0.045
SELFDEWFEQNNSEQDQ [ISW2] | 2.49 ± 0.067 | 2.54 ± 0.071 | 1.44 ± 0.14 | 1.95 ± 0.051
IYKPLLFEIVSNADTNQ [SRB8] | 1.71 ± 0.06 | 2.11 ± 0.066 | 2.33 ± 0.09 | 1.49 ± 0.078
VAATITSSQKEPFFLVT [SRB8] | 1.8 ± 0.071 | 2.17 ± 0.086 | 2.12 ± 0.083 | 2.21 ± 0.075
RNQVQTENVAQARIILN [YGR119C/NUP57] | 3 ± 0.1 | 2.9 ± 0.092 | 3.01 ± 0.05 | 2.78 ± 0.042
YTNSVELRSLSKKDFKI [YMR129W/POM152] | 2.41 ± 0.057 | 2.64 ± 0.058 | 2.32 ± 0.078 | 2.92 ± 0.069
SSSSDIIVPDLIELKSD [YML103C/NUP188] | 2.71 ± 0.085 | 3.15 ± 0.059 | 2.67 ± 0.13 | 2.7 ± 0.07
SKHNERNKSAANNDINS [YDL088C/ASM4] | – | 3.21 ± 0.12 | – | 2.85 ± 0.12
RYWVQKERSDGKRHIFD [CDC53] | 2.49 ± 0.2 | 2.98 ± 0.26 | 3.46 ± 0.13 | 2.91 ± 0.14
MQVLNTKSETKQENETM [MED11] | 2.79 ± 0.081 | 2.16 ± 0.11 | 1.41 ± 0.26 | 2 ± 0.092
PHIIAVACLFITISIHG [SSN8] | 1.17 ± 0.055 | 1.3 ± 0.049 | 1.34 ± 0.11 | 1.47 ± 0.062
LDERGHEKIEDEDEDND [RPN4] | 3.37 ± 0.25 | 3.44 ± 0.15 | 3.48 ± 0.13 | 3.32 ± 0.17
ALFQPPNFDWDLCSSVL [ROX3] | 3.08 ± 0.077 | 3.29 ± 0.098 | 2.95 ± 0.089 | 2.92 ± 0.09
QIDQLNRLLPNLPEEER [GRR1] | 2.62 ± 0.091 | 2.12 ± 0.064 | 2.05 ± 0.098 | 2.51 ± 0.083
SLQDRSSLVRRNSVKLL [YCS4] | 2.02 ± 0.055 | 2.12 ± 0.049 | 1.94 ± 0.062 | 1.56 ± 0.027
DSFIEKIIPKDISATQL [ITC1] | 2.96 ± 0.1 | 3.17 ± 0.12 | 3.07 ± 0.086 | 3.13 ± 0.085
LEAARSEKQNDEEAAGA [PRP8] | 2.37 ± 0.097 | 2.04 ± 0.078 | 2.61 ± 0.2 | 2.32 ± 0.078
LKKIASIPNLFPTDLEI [SWI1] | 2.59 ± 0.051 | 2.69 ± 0.044 | 2.55 ± 0.053 | 2.64 ± 0.036
DRKIEFPPPSVAARAEI [RPT6] | 2.02 ± 0.094 | 2.36 ± 0.11 | 1.83 ± 0.096 | 1.39 ± 0.052
